{"source": "patent US20240398899A1", "about": "(priority 2021, published 2024)", "molecules": {"B1": {"name": "SEQ ID NO: 1: variant of the S. rolfsii lectin amino acid sequence (reported as Rec-2 in WO2010/095143) (protein)", "chain": "TYKITVRVYQTNPDAFFHPVEKTVWKYANGGTWTITDDQHVLTMGGSGTSGTLRFHADNGESFTATFGVHNYKRWCDIVTNLAADETGMVINQQYYSQKNREEARERQLSNYQVKNAKGRNFQIVYTEAEGNDLHANLIIG"}}, "key": {"Acetylcholinesterase": {"system": "Acetylcholinesterase", "settings": "mice; for brain Acetylcholine esterase Mean: scopolamine 2.5 mg/kg i.p.", "procedure": "Healthy male Swiss albino mice (n=48) were selected and randomized based on body weight (n=8 per Group) into 6 groups as mentioned in table no-1. The control group G1 was treated intravenously with vehicle daily till the experiment completion. Group G2 was considered as negative control and treated with vehicle. […] Group G4, G5 &G6 animals were treated with the test item recombinant lectin protein having SEQ ID NO: 1 at the dose of 0.5 mg/kg, 0.25 mg/kg and 0.125 mg/kg, respectively. All the test items were given intravenously (i.v) daily at the dose volume of 5 ml/kg for 14 Days. The body weight was recorded daily throughout the experimental period. […] One hour after the last dose of test items (on Day 14) all the animals were injected with scopolamine hydrobromide at the dose of 2.5 mg/kg, i.p., except the normal control group G1. Passive avoidance test was conducted 30 min after scopolamine injection.\nAfter passive avoidance test screening models of memory, the animals were sacrificed humanely. The whole brain was carefully removed from the skull and weighed. Brain was dissected into two portions\n10% w/v brain homogenate (100 mg/mL) was prepared by homogenizing it in ice-chilled phosphate buffer. The homogenate was subsequently centrifuged using a refrigerated centrifuge at 3000 rpm for 10 min, and the supernatant was separated and used for the biochemical estimations.\nFollowing biomarkers was estimated using ELISA kit as per manufacturer's instruction. • Brain NGF (Nerve Growth Factor), CUSABIO, Catalog No. CSB-E04684m • Acetylcholinesterase, CUSABIO, Catalog No. CSB-E17521m • TNF alpha, CUSABIO, Catalog No. CSB-E04741m"}, "[1]": {"system": "Cerebral Cortex and Hippocampus", "assay": "Brain histopathology (H&E), scopolamine induced dementia", "type": "in vivo, Mus musculus (Swiss Albino)", "procedure": "Mouse brains were collected after humane sacrifice and fixed in 10% neutral buffered formalin. Then, the brain tissue was trimmed, processed and embedded in paraffin. 5 Micron sections were prepared in slide as a specimen for hematoxylin-eosin (H&E) staining. The hippocampal lesions were assessed microscopically at 100× magnification.\nDetailed histological investigation was performed H&E stained brain tissues. Scoring was given according to the neuronal damage. […] The grading criteria for Histopathology score was: Normal or no injury—0; Rare neuronal injury (<5 clusters)—1; Occasional neuronal injury (5-15 clusters)—2; Frequent neuronal injury (>15 clusters)—3; Diffused neuronal injury-4."}, "TNF alpha": {"system": "TNF alpha", "assay": "Brain biomarker ELISA, scopolamine induced dementia", "type": "in vivo, Mus musculus (Swiss Albino)", "settings": "scopolamine 2.5 mg/kg i.p., mice"}, "b-NGF": {"system": "b-NGF", "assay": "Alzheimer's biomarker multiplex analysis, scopolamine-damaged SH-SY5Y", "type": "cell-based, human", "settings": "Scopolamine (4 mM)", "procedure": "(§1) After overnight incubation as in the previous examples, cells were treated with recombinant lectin protein having SEQ ID NO: 1 at different concentrations ranging from 0.001 μg/ml-1 μg/ml for 24 h for Parkinson disease and 0.01 μg/ml-25 μg/ml for 24 h for Alzheimer's disease. • Parkinson Disease: After 24 h of pre-treatment with recombinant lectin protein having SEQ ID NO: 1, cells were exposed (MPP+) for another 24 h. Cells treated with MPP+Iodide were included as Control. […] The cells treated with Galantamine were included as positive Control.\n(§2) The levels of markers were determined by multiplex analysis as: Cell culture supernatants were diluted (1:2) with Calibrator Diluent. 50 μl of standard or sample was added per well. 50 μl of the microparticle cocktail was added to each well of the microplate and covered with a foil plate sealer. The plate was incubated for 2 hours at room temperature on a horizontal orbital microplate shaker. The plate was washed using a magnetic device designed to accommodate a microplate. Washing was done by applying the magnet to the bottom of the microplate, allowing 1 minute before removing the liquid, filling each well with wash buffer (100 μl) and allowing 1 minute before removing the liquid again. 50 μl of diluted Biotin-Antibody Cocktail was added to each well. Covered the plate with a foil plate sealer and incubated for 1 hour at room temperature on the shaker. Repeated the wash step. 50 μl of diluted Streptavidin-PE was added to each well. The plate was securely covered with a foil plate sealer and incubated for 30 minutes at room temperature on the shaker. Repeated the wash step. The microparticles were resuspended by adding 100 μl of Wash Buffer to each well. The plate was incubated for 2 minutes on the shaker and read within 90 minutes using Magpix® multiplex machine. Levels of biomarkers for Parkinson's and Alzheimer's disease were estimated using Magpix® multiplex machine.\n(§3) For Alzheimer's disease the percent modulation in each sample was determined as follows: […]"}, "MPO": {"system": "MPO", "assay": "Alzheimer's biomarker multiplex analysis, scopolamine-damaged SH-SY5Y", "type": "cell-based, human", "settings": "Scopolamine (4 mM)", "procedure": "as §1, §2, §3"}, "RAGE": {"system": "RAGE", "assay": "Alzheimer's biomarker multiplex analysis, scopolamine-damaged SH-SY5Y", "type": "cell-based, human", "settings": "Scopolamine (4 mM)", "procedure": "as §1, §2, §3"}, "[2]": {"settings": "G4: 0.5 mg/kg i.v. qdx14, score 0 normal to 4 diffused neuronal injury"}, "[3]": {"settings": "G5: 0.25 mg/kg i.v. qdx14, score 0 normal to 4 diffused neuronal injury"}, "[4]": {"settings": "G6: 0.125 mg/kg i.v. qdx14, score 0 normal to 4 diffused neuronal injury"}}, "note": "“And” between values parts separate entries of the source, which are not always exact repeats. Identical values can stand only once. Like-named read-outs stand apart in the source and are kept apart here.", "data": [{"molecule": "B1", "values": [{"measurement": "effect on scopolamine-increased AChE activity in the brain", "setting": "Acetylcholinesterase; 0.5 mg/kg pretreatment", "result": "significantly (p<0.001) attenuated"}, {"measurement": "brain Acetylcholine esterase Mean", "setting": "Acetylcholinesterase; G4: 0.5 mg/kg i.v. qdx14", "result": 4.47, "unit": "mU/ml"}, {"measurement": "brain Acetylcholine esterase Mean", "setting": "Acetylcholinesterase; G5: 0.25 mg/kg i.v. qdx14", "result": 6.27, "unit": "mU/ml"}, {"measurement": "brain Acetylcholine esterase Mean", "setting": "Acetylcholinesterase; G6: 0.125 mg/kg i.v. qdx14", "result": 6.59, "unit": "mU/ml"}, {"measurement": "Histopathology (Mean score) Cerebral Cortex Cortex", "setting": "[1]; [2]", "result": 0}, {"measurement": "Histopathology (Mean score) Cerebral Cortex Meninges", "setting": "[1]; [2]", "result": 0}, {"measurement": "Histopathology (Mean score) Hippocampus CA1", "setting": "[1]; [2]", "result": 0}, {"measurement": "Histopathology (Mean score) Hippocampus CA3", "setting": "[1]; [2]", "result": 0.67}, {"measurement": "Histopathology (Mean score) Hippocampus DG", "setting": "[1]; [2]", "result": 0}, {"measurement": "Histopathology (Mean score) Cerebral Cortex Cortex", "setting": "[1]; [3]", "result": 0}, {"measurement": "Histopathology (Mean score) Cerebral Cortex Meninges", "setting": "[1]; [3]", "result": 0}, {"measurement": "Histopathology (Mean score) Hippocampus CA1", "setting": "[1]; [3]", "result": 0}, {"measurement": "Histopathology (Mean score) Hippocampus CA3", "setting": "[1]; [3]", "result": 0.6}, {"measurement": "Histopathology (Mean score) Hippocampus DG", "setting": "[1]; [3]", "result": 0}, {"measurement": "Histopathology (Mean score) Cerebral Cortex Cortex", "setting": "[1]; [4]", "result": 0}, {"measurement": "Histopathology (Mean score) Cerebral Cortex Meninges", "setting": "[1]; [4]", "result": 0}, {"measurement": "Histopathology (Mean score) Hippocampus CA1", "setting": "[1]; [4]", "result": 0}, {"measurement": "Histopathology (Mean score) Hippocampus CA3", "setting": "[1]; [4]", "result": 1}, {"measurement": "Histopathology (Mean score) Hippocampus DG", "setting": "[1]; [4]", "result": 0}, {"measurement": "brain TNF-alpha Mean", "setting": "TNF alpha; G4: 0.5 mg/kg i.v. qdx14", "result": "121.7 pg/mL and 121.73 pg/mL"}, {"measurement": "brain TNF-alpha Mean", "setting": "TNF alpha; G5: 0.25 mg/kg i.v. qdx14", "result": 67.65, "unit": "pg/mL"}, {"measurement": "brain TNF-alpha Mean", "setting": "TNF alpha; G6: 0.125 mg/kg i.v. qdx14", "result": 79.53, "unit": "pg/mL"}, {"measurement": "% Change of Biomarkers markers (wrt Control) b-NGF", "setting": "b-NGF; 0.01 μg/mL", "result": 0, "unit": "%"}, {"measurement": "% Change of Biomarkers markers (wrt Control) b-NGF", "setting": "b-NGF; 0.1 μg/mL", "result": 0, "unit": "%"}, {"measurement": "% Change of Biomarkers markers (wrt Control) b-NGF", "setting": "b-NGF; 1 μg/mL", "result": "−9", "unit": "%"}, {"measurement": "% Change of Biomarkers markers (wrt Control) b-NGF", "setting": "b-NGF; 10 μg/mL", "result": 41.1, "unit": "%"}, {"measurement": "% Change of Biomarkers markers (wrt Control) b-NGF", "setting": "b-NGF; 25 μg/mL", "result": 88.9, "unit": "%"}, {"measurement": "% Change of Biomarkers markers (wrt Control) MPO", "setting": "MPO; 0.01 μg/mL", "result": 1.7, "unit": "%"}, {"measurement": "% Change of Biomarkers markers (wrt Control) MPO", "setting": "MPO; 0.1 μg/mL", "result": "−64", "unit": "%"}, {"measurement": "% Change of Biomarkers markers (wrt Control) MPO", "setting": "MPO; 1 μg/mL", "result": "−45.9", "unit": "%"}, {"measurement": "% Change of Biomarkers markers (wrt Control) MPO", "setting": "MPO; 10 μg/mL", "result": 0, "unit": "%"}, {"measurement": "% Change of Biomarkers markers (wrt Control) MPO", "setting": "MPO; 25 μg/mL", "result": 0, "unit": "%"}, {"measurement": "% Change of Biomarkers markers (wrt Control) RAGE", "setting": "RAGE; 0.01 μg/mL", "result": "−19.3", "unit": "%"}, {"measurement": "% Change of Biomarkers markers (wrt Control) RAGE", "setting": "RAGE; 0.1 μg/mL", "result": 0, "unit": "%"}, {"measurement": "% Change of Biomarkers markers (wrt Control) RAGE", "setting": "RAGE; 1 μg/mL", "result": "−19.3", "unit": "%"}, {"measurement": "% Change of Biomarkers markers (wrt Control) RAGE", "setting": "RAGE; 10 μg/mL", "result": 16.3, "unit": "%"}, {"measurement": "% Change of Biomarkers markers (wrt Control) RAGE", "setting": "RAGE; 25 μg/mL", "result": "−3", "unit": "%"}]}]}
